From patent US20240238446

What was measured:
[1] = target: human C3b, P01024
[2] = target: mouse C3b/iC3b deposited from mouse serum on LPS, P01027
Chain of mouse C3b/iC3b deposited from mouse serum on LPS, P01027 (P01027 25-1663): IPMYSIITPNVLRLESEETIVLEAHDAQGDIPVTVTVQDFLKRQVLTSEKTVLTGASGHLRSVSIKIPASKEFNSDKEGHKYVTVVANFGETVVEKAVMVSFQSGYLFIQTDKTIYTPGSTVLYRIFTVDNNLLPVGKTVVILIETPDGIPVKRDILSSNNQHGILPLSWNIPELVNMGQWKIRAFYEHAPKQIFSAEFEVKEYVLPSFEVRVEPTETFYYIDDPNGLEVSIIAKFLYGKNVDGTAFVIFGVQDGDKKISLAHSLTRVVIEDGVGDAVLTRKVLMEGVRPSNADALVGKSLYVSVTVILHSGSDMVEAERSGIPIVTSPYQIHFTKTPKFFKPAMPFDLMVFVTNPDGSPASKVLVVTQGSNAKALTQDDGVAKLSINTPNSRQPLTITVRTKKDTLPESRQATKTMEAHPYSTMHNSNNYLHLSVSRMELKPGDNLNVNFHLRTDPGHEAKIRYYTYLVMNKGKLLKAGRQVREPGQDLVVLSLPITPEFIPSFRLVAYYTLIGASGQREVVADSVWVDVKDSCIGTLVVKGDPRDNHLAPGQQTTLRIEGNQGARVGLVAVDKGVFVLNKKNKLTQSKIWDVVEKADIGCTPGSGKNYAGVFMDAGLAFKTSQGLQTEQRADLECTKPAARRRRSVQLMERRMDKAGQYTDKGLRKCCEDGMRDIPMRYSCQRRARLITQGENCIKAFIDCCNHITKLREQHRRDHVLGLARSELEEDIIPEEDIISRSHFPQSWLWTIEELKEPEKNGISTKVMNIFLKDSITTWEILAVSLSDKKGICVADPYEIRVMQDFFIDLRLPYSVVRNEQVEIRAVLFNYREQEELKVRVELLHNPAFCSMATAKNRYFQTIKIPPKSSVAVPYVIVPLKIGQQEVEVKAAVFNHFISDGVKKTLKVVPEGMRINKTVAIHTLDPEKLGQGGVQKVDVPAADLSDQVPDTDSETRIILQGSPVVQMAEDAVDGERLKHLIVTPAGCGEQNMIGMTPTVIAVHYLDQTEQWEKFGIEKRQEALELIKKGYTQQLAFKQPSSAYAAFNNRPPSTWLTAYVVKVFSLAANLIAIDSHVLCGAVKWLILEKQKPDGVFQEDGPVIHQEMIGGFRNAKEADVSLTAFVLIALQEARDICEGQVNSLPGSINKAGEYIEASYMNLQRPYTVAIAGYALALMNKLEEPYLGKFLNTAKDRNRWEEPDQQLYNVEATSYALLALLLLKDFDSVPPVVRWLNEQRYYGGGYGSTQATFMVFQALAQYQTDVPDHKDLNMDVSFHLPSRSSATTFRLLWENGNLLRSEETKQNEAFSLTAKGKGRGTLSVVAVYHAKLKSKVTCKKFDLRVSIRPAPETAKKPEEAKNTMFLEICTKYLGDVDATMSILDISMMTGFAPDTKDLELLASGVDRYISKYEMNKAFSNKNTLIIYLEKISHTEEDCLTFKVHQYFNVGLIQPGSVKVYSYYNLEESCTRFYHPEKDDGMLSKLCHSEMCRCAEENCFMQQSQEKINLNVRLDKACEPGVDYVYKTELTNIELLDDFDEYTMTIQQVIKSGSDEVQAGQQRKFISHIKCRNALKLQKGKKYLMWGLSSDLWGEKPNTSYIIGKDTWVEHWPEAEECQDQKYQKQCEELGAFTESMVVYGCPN

Chain of human C3b, P01024 (P01024 whole entry, looked up): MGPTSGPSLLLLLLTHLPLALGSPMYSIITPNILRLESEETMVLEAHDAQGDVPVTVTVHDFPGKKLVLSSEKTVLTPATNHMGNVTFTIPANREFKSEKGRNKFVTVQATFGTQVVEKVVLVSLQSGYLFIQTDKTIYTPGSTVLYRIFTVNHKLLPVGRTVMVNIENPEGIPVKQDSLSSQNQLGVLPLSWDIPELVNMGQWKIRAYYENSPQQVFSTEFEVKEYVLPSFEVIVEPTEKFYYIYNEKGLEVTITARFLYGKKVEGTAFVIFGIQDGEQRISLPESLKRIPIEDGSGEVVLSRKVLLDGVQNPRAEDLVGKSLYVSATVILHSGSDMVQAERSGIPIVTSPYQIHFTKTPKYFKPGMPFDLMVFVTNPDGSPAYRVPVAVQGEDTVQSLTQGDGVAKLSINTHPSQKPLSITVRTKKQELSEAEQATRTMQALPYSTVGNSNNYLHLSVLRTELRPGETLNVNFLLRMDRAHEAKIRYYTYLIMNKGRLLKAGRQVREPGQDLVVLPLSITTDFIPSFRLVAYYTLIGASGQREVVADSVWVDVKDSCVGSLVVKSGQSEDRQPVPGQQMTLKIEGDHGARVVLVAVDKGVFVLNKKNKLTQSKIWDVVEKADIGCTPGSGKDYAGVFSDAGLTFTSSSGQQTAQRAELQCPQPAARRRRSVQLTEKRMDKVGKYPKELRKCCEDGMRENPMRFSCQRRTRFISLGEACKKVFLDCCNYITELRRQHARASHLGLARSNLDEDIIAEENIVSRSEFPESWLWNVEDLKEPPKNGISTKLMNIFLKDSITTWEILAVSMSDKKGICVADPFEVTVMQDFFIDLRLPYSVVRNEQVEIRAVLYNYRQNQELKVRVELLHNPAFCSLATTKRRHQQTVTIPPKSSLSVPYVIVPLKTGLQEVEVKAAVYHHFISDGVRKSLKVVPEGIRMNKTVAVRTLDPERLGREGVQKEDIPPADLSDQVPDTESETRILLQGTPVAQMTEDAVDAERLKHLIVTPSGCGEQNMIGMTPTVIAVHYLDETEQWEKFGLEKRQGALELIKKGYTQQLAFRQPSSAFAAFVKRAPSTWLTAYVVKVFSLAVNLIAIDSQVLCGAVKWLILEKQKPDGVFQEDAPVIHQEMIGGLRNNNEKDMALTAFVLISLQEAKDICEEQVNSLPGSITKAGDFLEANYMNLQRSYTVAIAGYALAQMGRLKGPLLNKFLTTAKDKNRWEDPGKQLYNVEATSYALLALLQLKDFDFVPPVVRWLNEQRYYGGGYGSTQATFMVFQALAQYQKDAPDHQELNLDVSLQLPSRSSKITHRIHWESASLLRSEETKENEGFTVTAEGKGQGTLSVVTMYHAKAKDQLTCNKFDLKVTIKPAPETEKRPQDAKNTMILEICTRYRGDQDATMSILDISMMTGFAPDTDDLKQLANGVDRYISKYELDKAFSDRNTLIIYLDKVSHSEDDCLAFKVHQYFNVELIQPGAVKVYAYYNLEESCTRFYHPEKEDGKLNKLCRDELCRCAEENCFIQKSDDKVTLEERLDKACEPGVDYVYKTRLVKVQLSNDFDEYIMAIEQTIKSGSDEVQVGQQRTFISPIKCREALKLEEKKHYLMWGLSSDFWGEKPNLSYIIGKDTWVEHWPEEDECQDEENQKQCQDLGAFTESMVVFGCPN

B1: mouse Factor I in mouse serum (protein)
chain: RSPSASDLPQEELVDQKCLLQKYTHRSCNKVFCQPWQRCIEGTCICKLPYQCPRAGTPVCAMNGRSYPTYCHQKSFECLHPEIKFSHNGTCAAEGKFNVSLIYGRTKTEGLVQVKLVDQDERMFICKNSWSMAEANVACVDLGFPLGVRDIQGSFNISGNLHINDTECLHVHCRGVETSLAECAFTKRRTELSNGLAGVVCYKQDADFPTSLSFQCVNGKHIPQEKACNGVNDCGDQSDELCCKGCRGNASLCKSGVCIPDQYKCNGEVDCITGEDESRCEEDRQQNIPKGLARSAQGEAEIETEETEMLTPGMDNERKRIKSLLPKLSCGVKRNTHTRRKRVIGGKPANVGDYPWQVAIKDGQRITCGGIYIGGCWILTAAHCVRPSRAHSYQVWTALLDWLKPNSQLGIQTVKRVIVHEKYNGATFQNDIALIEMKMHTGKKECELPNSVPACVPWSPYLFQPNDRCIISGWGRGKDNQKVYSLRWGEVDLIGNCSQFYPDRYYEKEMQCAGTRDGSIDACKGDSGGPLVCEDINNVTYVWGIVSWGENCGKPEFPGVYTRVANYFDWISYHVGRSLVSQHNV
With B1 the “in vitro C3b and iC3b cleavage assay (western blot with clone 9, generation of C3dg; human Factor H as cofactor, 30 minutes)” value [1] was “more efficiently cleaved to C3dg within the incubation period in the AAV_FI medium and AAV_FI high group”, the “C3b/iC3b deposition on LPS-coated plate, reduction, serum of AAV high FI group” value [2] was “by 50% in the AAV % high FI group” and the “C3b/iC3b deposition on LPS-coated plate, reduction, serum of AAV_low FI group” value [2] was “reduced by 11% in the AAV_low FI”. The “C3b/iC3b deposition on LPS-coated plate, reduction, serum of AAV_medium FI group” value [2] was “by 38% in the AAV_medium FI”.
